Laboratory results: publication PMC8836581, “A Microplate-Based Approach to Map Interactions between TDP-43 and α-Synuclein” (Journal of Clinical Medicine, 2022)

How the values were obtained:
[1] = molecular target: full length recombinant alpha synuclein (UniProt P37840 1-140); test: ELISA; synthetic peptides (5 µg/mL in PBS, 10 mM EDTA) coupled through cysteine to maleimide-activated microplate wells, blocked with L-cysteine; 0.1 µg/mL recombinant protein added 1 h at 37 °C; biotinylated detection antibody, streptavidin-HRP, TMB, absorbance at 450 nm; details: both partners purified
[2] = molecular target: T1, full length recombinant TDP-43 (UniProt Q13148 1-414); test: as above; details: both partners purified
T1 construct: Called monomeric in the conventional ELISA; also called full-length TDP-43; source: recombinant
T1 sequence (Q13148 whole entry): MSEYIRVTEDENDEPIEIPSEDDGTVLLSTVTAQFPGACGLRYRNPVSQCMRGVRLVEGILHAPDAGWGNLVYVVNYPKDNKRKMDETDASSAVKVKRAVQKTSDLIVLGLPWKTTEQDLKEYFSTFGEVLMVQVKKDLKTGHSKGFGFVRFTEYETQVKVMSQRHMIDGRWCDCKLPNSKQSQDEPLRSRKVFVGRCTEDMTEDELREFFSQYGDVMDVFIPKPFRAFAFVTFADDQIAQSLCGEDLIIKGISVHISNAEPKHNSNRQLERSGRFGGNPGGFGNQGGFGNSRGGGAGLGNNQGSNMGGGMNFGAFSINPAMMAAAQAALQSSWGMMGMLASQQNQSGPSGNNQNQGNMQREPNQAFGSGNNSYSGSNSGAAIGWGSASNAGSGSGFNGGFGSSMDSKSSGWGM

binding result [1]	binding result [2]	Binder
binds	–	SNMGGGMNFGAFSINPAMM (source: synthetic peptide (Lugen Sci Co., Ltd.)) [TDP-43 overlapping peptide aa 305–323]
binds	–	GMNFGAFSINPAMMAAAQAA (That this stretch has no internal cysteine is my surmise; source: synthetic peptide (Lugen Sci Co., Ltd.)) [TDP-43 peptide 17 (aa 310–329)]
–	binds	EQVTNVGGAVVTGVTA (peptide, UniProt P37840 61-76, looked up, alpha synuclein residues 61-76, start of the non-amyloid β component (NAC); also called first 16 residues of the NAC; first 15 residues of the NAC region; source: synthetic peptide (Lugen Sci Co., Ltd.)) [α-synuclein peptide, amino acids 61–76]
